Experimental findings from patent publication US20110112012A1 (UNIVERSITY OF GEORGIA STUDIES RESEARCH FOUNDATION, published 2011) are described below.

The experiment concerns the target T1, Cry4Ba toxin (Cry4BRA mutant, R203 replaced by A) of Bacillus thuringiensis israelensis (Bacillus thuringiensis israelensis, UniProt P05519 51-641).
T1 construct: domain: ~66 kDa toxin mosquitocidal fragment; also called labeled Cry4Ba
T1 sequence: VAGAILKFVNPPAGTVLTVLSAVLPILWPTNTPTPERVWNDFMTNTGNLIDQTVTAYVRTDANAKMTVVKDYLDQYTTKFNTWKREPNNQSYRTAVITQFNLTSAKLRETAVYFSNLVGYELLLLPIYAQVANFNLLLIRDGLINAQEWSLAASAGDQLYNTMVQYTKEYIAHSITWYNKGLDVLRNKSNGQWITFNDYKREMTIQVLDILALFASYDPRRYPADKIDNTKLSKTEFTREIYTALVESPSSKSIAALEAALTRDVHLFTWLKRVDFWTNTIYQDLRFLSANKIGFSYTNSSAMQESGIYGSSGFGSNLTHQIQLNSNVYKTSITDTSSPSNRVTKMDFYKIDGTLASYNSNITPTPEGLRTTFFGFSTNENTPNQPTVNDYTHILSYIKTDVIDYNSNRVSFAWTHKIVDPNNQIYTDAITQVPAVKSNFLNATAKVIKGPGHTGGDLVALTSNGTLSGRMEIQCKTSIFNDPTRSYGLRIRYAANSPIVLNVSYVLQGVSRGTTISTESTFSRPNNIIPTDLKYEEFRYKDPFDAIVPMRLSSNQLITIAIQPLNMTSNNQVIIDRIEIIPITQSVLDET
Description: microplate ELISA, Cry4Ba coated, biotinylated fragment titrated, one site saturation fit.

B1: CR9-11 fragment of AgCad1, expressed in E. coli (peptide)
chain: GSPLPKFEAIDDDGGIYGDVTFSLTSTNDGEQDHEVFRVDKVDNKTGLLVLENSLAVQPFPKNYSITVIARDGGDRQSEAAIHVVFINMTGEPAFLEPTFDTDFTENEEGRDERRQLPFAEDPKNAGLPPGAETNVYYFIDKTYGNASHLFQLDRVSNVLQLAQLLDREEIPTPEIRIVATNNENSPPDTVLESSPSLLVVRIKVNDVNDNPPVFQQRLYAAGITTNDRVPKALFRVYAEDPDEDEIIRYELVNGTAVGENLQTDGLPFRLHPDSGELTLTSKVQPNQNGYYQLTLIAFDRDDTHNDTVPAKVYIVSESNRVTFVF
notes: Biotinylated for the microplate assay; also called AgCad CR9-11; AgCad-CR9-11
For the molecule B1, the Kd stood at 173 nM.

B2: CR11-MPED peptide of AgCad1 (amino acids 1358G to 1569A), expressed in E. coli (peptide)
chain: GITTNDRVPKALFRVYAEDPDEDEIIRYELVNGTAVGENLQTDGLPFRLHPDSGELTLTSKVQPNQNGYYQLTLIAFDRDDTHNDTVPAKVYIVSESNRVTFVFLNSVEEIDQPDVRKFLAQELTGAYEMECNIDDIDQTTASDGRQAGGSSSALTDVRTHFIQDNQAVEASRIQQRSSNRTFVTVLKTTLRTRGLSLQDVPPLATEALTEA
notes: Biotinylated with sulfo-NHS-PC-biotin for the microplate assay; also called AgCad CR11-MPED; AgCad-CR11-MPED
B2 displayed a Kd of 393 nM.

The Kd is a measure of binding affinity in units of concentration.
